Experimental data reported in patent US20090060916A1 (published 2009).
“And” between values parts separate entries of the source, which are not always exact repeats. Identical values can stand only once.

Experiments:
[1] = target: T1, human IL-4 (human, UniProt P05112 25-153, biotinylated in the receptor binding assay and on the Biacore chip); test: IL-4 RBA: ELISA, IL-4R/Fc coated, biotinylated IL-4
T1 construct: also called interleukin-4; biotinylated IL-4
T1 sequence (looked up): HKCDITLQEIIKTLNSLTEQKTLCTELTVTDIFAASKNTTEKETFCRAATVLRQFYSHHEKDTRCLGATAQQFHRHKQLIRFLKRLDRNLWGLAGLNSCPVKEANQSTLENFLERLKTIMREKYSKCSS
Source text: (§1) The wells were washed three times with 0.1% (v/v) Tween 20 in PBS, followed by three washes with PBS, before blocking with 2% (w/v) BSA in PBS. […] The reaction was stopped by the addition of HCl and the absorbance read at 450 nm.

[2] = target: T2, human IL-13 (human, UniProt P35225 35-146, biotinylated on the Biacore chip); test: IL-13 receptor binding assay by the legend; IL-13 sandwich ELISA by paragraph 465
T2 construct: also called hIL-13; recombinant human IL-13

[3] = target: T1, human IL-4; test: cell-based or functional assay
[4] = target: T1, human IL-4; test: IL-4 RBA: ELISA, IL-4R/Fc coated, biotinylated IL-4; remark: listed apart in the source
Source text: as §1

[5] = target: T1, human IL-4; test: cell-based or functional assay; remark: listed apart in the source
[6] = target: T2, human IL-13; test: Biacore SPR, biotinylated human IL-13 on SA chip
Experimental: (§2) 50 to 100 ul of the diluted supernatant was injected (kininject) at 50 ul/min flow rate, followed by a 5 minute dissociation phase. Association and dissociation off-rates and constants were calculated using BIAevaluation software v4.1 (Biacore).

[7] = target: T3, cynomolgous IL-13 (cynomolgous, UniProt Q0PW92 19-132, The Biacore assay used biotinylated cIL-13 according to our card. The biotin cannot be carried in the letters.); test: Biacore SPR, biotinylated cynomolgous IL-13 on SA chip
T3 construct: also called cIL-13; cynomolgus IL-13
Experimental: as §2

[8] = target: T2, human IL-13; test: cell-based or functional assay
[9] = target: T3, cynomolgous IL-13; test: cell-based or functional assay
[10] = target: T2, human IL-13; test: DOM10 RBA (IL-13 sandwich ELISA per paragraph 473)
Experimental: (§3) A MAXISORP™ plate (high protein binding ELISA plate, Nunc, Denmark) was coated overnight with 2.5 μg/ml coating antibody (Module Set, Bender MedSystems, Vienna, Austria), then washed once with 0.05% (v/v) Tween 20 in PBS before blocking with 0.5% (w/v) BSA 0.05% (v/v) Tween 20 in PBS. […] The plate was then incubated with TMB substrate (KPL, Gaithersburg, USA), and the reaction was stopped by the addition of HCl and the absorbance read at 450 nm.
These in-line fusions were constructed and expressed as described above. […] After this incubation, the level of cell proliferation was determined.

[11] = target: T1, human IL-4; test: DOM9 RBA (IL-4 RBA)
[12] = target: T1, human IL-4; test: DOM9 RBA (IL-4 RBA); remark: listed apart in the source
Source text: as §1

[13] = target: T4, rhesus IL-4 (rhesus, UniProt P51492 25-153); test: inferred from TF-1 proliferation with rhesus IL-4
T4 sequence (looked up): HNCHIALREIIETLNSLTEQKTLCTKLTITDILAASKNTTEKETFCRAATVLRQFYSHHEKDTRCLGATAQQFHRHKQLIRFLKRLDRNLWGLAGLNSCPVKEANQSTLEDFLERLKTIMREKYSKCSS
Experimental: The mixture was incubated for 72 hours at 37° C. 5% CO₂. […] 96® reagent (colorometric reagent for determining viability, Promega, Madison, USA) was then added and the number of cells per well was quantified by measuring the absorbance at 490 nm.
A dose-response of the dAb will determine the ND50 in this set up.

[14] = target: T2, human IL-13; test: IL-13 receptor binding assay (receptor chain not stated)
[15] = target: T2, human IL-13; test: cell-based or functional assay; remark: listed apart in the source
[16] = target: T2, human IL-13; test: IL-13 sandwich ELISA, competition with coating antibody
Experimental: as §3

[17] = target: T2, human IL-13; test: cell-based or functional assay; remark: listed apart in the source
[18] = target: T2, human IL-13; test: IL-13 receptor I RBA: FMAT beads, IL-13R alpha1/Fc
Experimental: The plate was incubated for seven hours before being read in the 8200 cellular detection system (Applied Biosystems).
This molecule was PEGylated via the C terminus using PEG-Maleimide with a branched 40K PEG2-MAL moiety.

[19] = target: T2, human IL-13; test: assay not named ('Potency IC50')

T2 sequence (P35225 35-146 limits assumed): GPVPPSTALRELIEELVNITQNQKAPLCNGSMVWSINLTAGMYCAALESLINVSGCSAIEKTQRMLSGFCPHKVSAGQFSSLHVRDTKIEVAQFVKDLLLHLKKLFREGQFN
T3 sequence (Q0PW92 entry or part of it limits assumed, form in doubt): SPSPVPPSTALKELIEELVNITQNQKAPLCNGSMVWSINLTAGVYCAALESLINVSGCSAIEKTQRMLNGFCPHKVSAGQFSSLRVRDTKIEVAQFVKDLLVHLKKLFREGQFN

B1: DOM9-112 (ASTKGPS) DOM10-53-344 (bispecific antibody)
chain: EVQLLESGGGLVQPGGSLRLSCAASGFTFRNYGMAWVRQAPGKGLEWVSWIDASGTETYYADSVKGRFTISRDNSKNTLYLQMNSLRAEDTAVYYCAKSLGRFDYWGQGTLVTVSSASTKGPSGVQLLESGGGLVQPGGSLRLSCAASGFIFAWYDMGWVRQAPGKGLEWVSSIDWHGEVTYYADSVKGRFTISRDNSKNTLYLQMNSLRAEDTAVYYCATAEDEPGYDYWGQGTLVTVSS
notes: in-line fusion of two VH dAbs; also called dual specific ligand
B1 was tested, and the IC50 [1] was about 1 nM and the IC50 [2] was 0.12 nM.

B2: DOM9-44-502 (other)
VL: DIQMTQSPSSLSASVGDRVTITCRASQNINFWLRWYQQKPGKAPTLLIYDASRSQSGVPSRFSGSGSGTDFTLTISSLQPEDFATYYCQQDLMPPYTFGQGTKVEIKR
notes: Vk dAb
For B2, the IC50 [1] was 4 nM, the “average inhibition of HDM induced PBMC proliferation, 100 nM dAb, responding donors” value [3] was 38% and the IC50 [4] was 5.5 nM and 8.6 nM and 4.1 nM and 3.6 nM. The “ND50, IL-4 induced TF-1 cell proliferation” value [5] was 4.5 nM.

B3: DOM10-275-78 (other)
VH: EVQLLESGGGLVQPGGSLRLSCVASGFTFDVAEMDWVRQAPGKGLEWVSTISPSRRGTYYADSVKGRFTISRDNSKNTLYLQMNSLRAEDTAVYYCAKAYTGRSLWGPGTLVTVSS
notes: VH dAb
With B3 the Kd [6] was 0.072 to 0.1 nM, the Kd [7] was 0.32 to 0.75 nM and the “EC50, HEK293 STAT6 SEAP reporter assay, hIL-13” value [8] was 2.5 nM. The “EC50, HEK293 STAT6 SEAP reporter assay, cIL-13” value [9] was 1.4 nM.

B4: DOM9-112-210-DOM10-275-1 (bispecific antibody)
chain: EVQLLESGGGLVQPGGSLRLSCAASGFTFRNFGMGWVRQAPGKGLEWVSWIISSGTETYYADSVKGRFTISRDNSKNTLYLQMNSLRAEDTAVYYCAKSLGRFDYWGQGTLVTVSSASTKGPSEVQLLESGGGLVQPGGSLRLSCAASGFTFDREEMDWVRQAPGKGLEWVSTISPSGRKTYYADSVKGRFTISRDNSKNTLYLQMNSLRAEDTAVYYCAKAYTGFDYWGQGTLVTVSS
With B4 the IC50 [10] was 44.9 nM.

B5: DOM9-112-22 (other)
VH: EVQLLESWGGLVQPGGSLRLSCAASGFTFRNYGMAWVRQAPGKGLEWISWIDASGTETYYADPVKGRFTISRDNSKNTLYLQMNSLRAEDTAVYYCAKSLGRFDYWGQGTLVTVSS
For B5, the “average inhibition of HDM induced PBMC proliferation, 100 nM dAb, responding donors” value [3] was 23%.

B6: DOM9-112-210 (other)
VH: EVQLLESGGGLVQPGGSLRLSCAASGFTFRNFGMGWVRQAPGKGLEWVSWIISSGTETYYADSVKGRFTISRDNSKNTLYLQMNSLRAEDTAVYYCAKSLGRFDYWGQGTLVTVSS
notes: VH dAb
Work on B6 yielded an IC50 [4] of 0.144 nM and an IC50 [11] of 0.391 nM.

B7: DOM10-275-1-DOM9-155-78 (bispecific antibody)
chain: EVQLLESGGGLVQPGGSLRLSCAASGFTFDREEMDWVRQAPGKGLEWVSTISPSGRKTYYADSVKGRFTISRDNSKNTLYLQMNSLRAEDTAVYYCAKAYTGFDYWGQGTLVTVSSASTKGPSDIQMTQSPSSLSASVGDRVTITCRASRHIGDWLHWYQQKPGKAPKLLIAWASTLDSGVPSRFSGSGSGTDFTLTISSLQPEDFATYYCLQEGWGPPTFGQGTKVEIKR
B7 gave an IC50 [10] of 39.2 nM.

B8: DOM9-155-78 (other)
VL: DIQMTQSPSSLSASVGDRVTITCRASRHIGDWLHWYQQKPGKAPKLLIAWASTLDSGVPSRFSGSGSGTDFTLTISSLQPEDFATYYCLQEGWGPPTFGQGTKVEIKR
notes: Vk dAb
With B8 the IC50 [12] was 0.41 nM, the binding result [13] was “binds” and the IC50 [11] was 0.456 nM.

B9: PEGylated DOM9-112 (AST) DOM10-53-343 (bispecific antibody)
chain: EVQLLESGGGLVQPGGSLRLSCAASGFTFRNYGMAWVRQAPGKGLEWVSWIDASGTETYYADSVKGRFTISRDNSKNTLYLQMNSLRAEDTAVYYCAKSLGRFDYWGQGTLVTVSSASTEVQLLESGGGLVQPGGSLRLSCAASGFIFAWYDMGWARQAPGKGLEWVSSIDWHGEVTYYADSVKGRFTISRDNSKNTLYLQMNSLRAEDTAVYYCATAEDEPGYDYWGQGTLVTVSSC
modifications: 40K PEG2-MAL on the C-terminal cysteine
notes: in-line fusion of two VH dAbs made in Pichia pastoris; also called dual specific ligand
B9 was tested, and the IC50 [1] was 13 nM and the IC50 [14] was 0.31 nM.

B10: DOM10-53-234 (other)
VH: GVQLLESGGGLVQPGGSLRLSCAASGFIFAWYDMGWARQAPGKGLEWVSSIDWHGNVTYYADSVKGRFTISRDNSKNTLYLQMNSLRAEDTAVYYCATAEDEPGYDYWGQGTLVTVSS
notes: VH dAb
In the case of B10, the “ND50, IL-13 induced TF-1 cell proliferation” value [15] is reported as 43 nM and the IC50 [16] is reported as 0.087 nM and 0.081 nM and 0.04 nM.

B11: DOM10-53-338 40K PEG2 NHS (other)
VH: EVQLLESGGGLVQPGGSLRLSCAASGFIFAWYDMGWARQAPGKGLEWVSSIDWRGNVTYYADSVKGRFTISRDNSKNTLYLQMNSLRAEDTAVYYCATAEDEPGYDYWGQGTLVTVSS
modifications: 40K PEG2-NHS on surface lysine residues (positions not stated)
notes: also called 40K PEGylated DOM10-53-338 dAb
With B11 the “IC50, IL-13 induced TF-1 proliferation” value [17] was 0.231 nM and the IC50 [18] was 0.226 nM.

B12: DOM10-53-338 (other)
VH: EVQLLESGGGLVQPGGSLRLSCAASGFIFAWYDMGWARQAPGKGLEWVSSIDWRGNVTYYADSVKGRFTISRDNSKNTLYLQMNSLRAEDTAVYYCATAEDEPGYDYWGQGTLVTVSS
notes: VH dAb
With B12 the “IC50, IL-13 induced TF-1 proliferation” value [17] was 0.423 nM and the IC50 [18] was 0.387 nM.

B13: DOM10-53-344 (other)
VH: GVQLLESGGGLVQPGGSLRLSCAASGFIFAWYDMGWVRQAPGKGLEWVSSIDWHGEVTYYADSVKGRFTISRDNSKNTLYLQMNSLRAEDTAVYYCATAEDEPGYDYWGQGTLVTVSS
notes: VH dAb
For B13, the IC50 [19] was 0.1 nM, the “ND50, IL-13 induced TF-1 cell proliferation” value [15] was 100 nM and the IC50 [2] was 0.04 nM.

B14: DOM10-53-474 (other)
VH: GVQLLESGGGLVQPGGSLRLSCAASGFTFAWYDMGWVRQAPGKGLEWVSSIDWHGEVTYYADSVKGRFTISRDNSKNTLYLQMNSLRAEDTAVYYCATAEDEPGYDYWGQGTLVTVSS
notes: VH dAb
With B14 the Kd [6] was 0.028 nM, the EC50 [16] was 0.023 nM and the Kd [7] was 2 nM. For the same binder, the “EC50, HEK293 STAT6 SEAP reporter assay, hIL-13” value [8] was 0.63 nM and the “EC50, HEK293 STAT6 SEAP reporter assay, cIL-13” value [9] was 11.1 nM.

B15: DOM10-53-343 (other)
VH: EVQLLESGGGLVQPGGSLRLSCAASGFIFAWYDMGWARQAPGKGLEWVSSIDWHGEVTYYADSVKGRFTISRDNSKNTLYLQMNSLRAEDTAVYYCATAEDEPGYDYWGQGTLVTVSS
notes: VH dAb
Work on B15 yielded an IC50 [18] of 0.136 nM and an IC50 [14] of 0.23 nM.

B16: DOM10-53-338 30K PEG ALD (other)
VH: EVQLLESGGGLVQPGGSLRLSCAASGFIFAWYDMGWARQAPGKGLEWVSSIDWRGNVTYYADSVKGRFTISRDNSKNTLYLQMNSLRAEDTAVYYCATAEDEPGYDYWGQGTLVTVSS
modifications: 30K PEG-ALD on the N-terminus (alpha-amino group)
notes: also called 30K PEGylated DOM10-53-338 dAb
For B16, the “IC50, IL-13 induced TF-1 proliferation” value [17] was 0.181 nM and the IC50 [18] was 0.169 nM.
